Paper doi:10.1101/071829
Read-outs that look alike come from different tables or passages of the source.

What was measured:
Assay in all cases: SEC
[1] = target: C. difficile replicative helicase CD3657, purified non-tagged (Clostridium difficile 630)
[2] = target: C. difficile replicative helicase CD3657, purified non-tagged (Clostridium difficile 630); remark: listed apart in the source
[3] = target: C. difficile putative helicase loader ATPase CD3654, purified non-tagged (Clostridium difficile 630)
[4] = target: C. difficile replicative helicase CD3657, purified non-tagged (Clostridium difficile 630); remark: listed apart in the source

C. difficile replicative helicase CD3657, purified non-tagged (enzyme)
stoichiometry N [1]: 6 | stoichiometry N [2]: 6 | stoichiometry N (CD3657 per CD3654 (6:6)) [3]: 1 | stoichiometry N [4]: 6
